Reference: the supplement of paper PMC9170038

Test system: MS2 coat protein
Experiment: apparent KD of MS2 coat protein; designed switch direction (-1 OFF switch, 1 ON switch): -1; higher = weaker reporter binding
In short: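 Apparent KD, taken as the median over clusters for each design, was obtained by curve-fitting normalised cluster fluorescence. Designed RNA switches had been transcribed on Illumina chips by stalled E. coli RNA polymerase and titrated with SNAP-549-labelled MS2 coat protein, doubling from 0.7 or 1.5 nM to 3 µM.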

[1] = Eterna round: R95, input ligand: microRNA oligo, concentration not stated
[2] = Eterna round: R95, input ligand: FMN 200 uM
[3] = Eterna round: R95, input ligand: none
[4] = input ligand: microRNA oligo, concentration not stated

| Sequence | apparent KD of MS2 coat protein (input ligand: FMN 200 uM) [nM] | apparent KD of MS2 coat protein (input ligand: none) [nM] | apparent KD of MS2 coat protein [1] [nM] | apparent KD of MS2 coat protein [2] [nM] | apparent KD of MS2 coat protein [3] [nM] | apparent KD of MS2 coat protein [4] [nM] |
| --- | --- | --- | --- | --- | --- | --- |
| UCCUCACCCAAGGAUAUCUGAGUCGGAACUAGCAGAGAAGGUGGCACAUGAGGAUCACCCAUGUAGACCAAUGC [Eternabot (L2) Solution 9] (Eterna round: R97, puzzle: Exclusion 6) | 7.87 | 7.73 | – | – | – | – |
| UUAAUAGCAGCGAGAUCCCACAUGAGGAUCACCCAUGUCGUAGACGAAAAGUCUACGUUAGCUCGUCUUAUAAAUAU [Winner reversed engineered 39] (Eterna round: R97, puzzle: Sensor, turn-off variant 1) | 95.1 | 111 | – | – | – | – |
| GAUGAAAGAGUCAGGAUAUAUAACCACGACGGCUUGUAGAAGGGACAUGAGGAUCACCCAUGUGAUGGAAUGAU [Eternabot (L2) Solution 13] (Eterna round: R97, puzzle: Brourd's mod of Exclusion 4) | 64 | 43.6 | – | – | – | – |
| UUUGCAAGCUAAAGAUCCCACAUGAGGAUCACCCAUGUUGCUGCCGUGAGGUAGCUUUUAACUUUUGCUCGUCUUAU [JL TOV1 3.44] (Eterna round: R97, puzzle: Sensor, turn-off variant 1) | 183 | 217 | – | – | – | – |
| CUCUUGUAAGGAUAUCUGACAAGUGACGAAAGUCACAGUUCAGAGAAGGUACAUGAGGAUCACCCAUGUAGAAC [Exclusion 4 - Mod Brourd Ex 4-3: 41] (puzzle: Exclusion 4) | – | – | 60.6 | – | – | – |
| GCUUGGCGAGGAUAUACAUGAGGAUCACCCAUGUGAGAAGAAUAAGUGAGGAAGAAAAGUAGAAGGCGCUGAGG [Mat - Exclusion 3 - Mod of Salish D62] (puzzle: Exclusion 3) | – | – | 30.4 | 56.1 | 37.6 | – |
| UAGCAUUGCCAAAGGUAGUGCAAAACAUGAGGAUCACCCAUGUAGGAUAUGGUAGGCAAAGCUUACCAGAAGGACAUGAUAAAU [Mat - Exclusion NG 3 - Mod of JL - D18] (Eterna round: R96, puzzle: Exclusion NG 3) | 327 | 54.5 | – | – | – | 39.7 |
| GGUCAAGAACAGAACCGCGCUGCCCUUGACCGCUCAUUUACAUGAGGAUCACCCAUGUUUUUUGCUUGUCUUGUUAC [Qugeon] (puzzle: Sensor v3, turn-off variant 2) | – | – | 89.6 | 16.2 | 17.3 | – |
| GCGAAAGCAAGCAAGUGAAACAUGAGGAUCACCCAUGUCCUCAUUUGUUCGUCUUAUAAGCUAUGCGAAAGCAUAGC [Sensor 3, v1 - 7] (puzzle: Sensor v3, turn-off variant 1) | – | – | 218 | 18.4 | 19.4 | – |
| CUUUAGUGAGGAUAUCAGUAGUAAUACAAUAGUAUUAUUACUGAGAAGGCACAUGAGGAUCACCCAUGUUCCUC [Mat - Exclusion 4 - Mod of Omei - D81] (puzzle: Exclusion 4) | – | – | 26.9 | – | – | – |
| AAAUAGCUAGAGGAUAUUGGAUAGGAUUUAGUACGAGAAGGUUAGACAUGAGGAUCACCCAUGUUGUGUUGGGA [EX6 #16] (Eterna round: R97, puzzle: Exclusion 6) | 49.2 | 52.9 | – | – | – | – |
| AAGUACCGUCACGAUAGUGAUGGUACAACAAGCAAGUGAACAUGAGGAUCACCCAUGUCCUCAAUUGCUCGUCUUAU [Sensor 3 - 71] (puzzle: Sensor v3, turn-off variant 2) | – | – | 62.1 | 28.1 | 28.5 | – |
| AUCAUGUAAGGAUAUCUUACAUGUGACUUCGGUCACAGUUAAGAGAAGGUACAUGAGGAUCACCCAUGUAUAAC [Ex4-3: 37] (puzzle: Exclusion 4) | – | – | 25.3 | – | – | – |
| AAAUUAAGUGUGAGGAUAUGCUGGUCCUUGGAUCAGCAGAAGGCACAUGAGGAUCACCCAUGUAAUAUAUUUAA [Mat - Exclusion 4 - JL Mod - D49] (puzzle: Brourd's mod of Exclusion 4) | – | – | 74.2 | 439 | 144 | – |
| UAGCAAUGAGAUGGGUUCCACAUGAGGAUCACCCAUGUCCAAGCUCAGAGCUCGUCUUAUUUGAGAUACUUCACUGU [Eternabot (L2) Solution 50] (Eterna round: R97, puzzle: Sensor, turn-off variant 1) | 41.1 | 43.4 | – | – | – | – |
| UAGGACAAAGGAUAUACGUGUUAUGAUCGGGAUAACAAAAGACAUGAGGAUCACCCAUGUAGAAGGUUGCUUGA [EX2 B.25] (Eterna round: R97, puzzle: Exclusion 2) | 26.2 | 17.8 | – | – | – | – |
| CGGGAGGGACAAGCUUUUUGCACGUCUGUUAUUGAUGCAACAUGAGGAUCACCCAUGUUUAGGGUGUGAGAGGAUGG [JR_SV3TOV2_Sub051] (puzzle: Sensor v3, turn-off variant 2) | – | – | 471 | 373 | 553 | – |

| Sequence | apparent KD of MS2 coat protein (input ligand: FMN 200 uM) [nM] | apparent KD of MS2 coat protein (input ligand: none) [nM] | apparent KD of MS2 coat protein [1] [nM] | apparent KD of MS2 coat protein [2] [nM] | apparent KD of MS2 coat protein [3] [nM] | apparent KD of MS2 coat protein [4] [nM] |
| --- | --- | --- | --- | --- | --- | --- |
| CGCCCUCCGGUGAGGAUAUUGCCCACCAUGGUCGGCAAGAAGGCACUUGAGGAUCACCCAAGUAAAACAAAUAA [Beraus] (Eterna round: R97, puzzle: Brourd's mod of Exclusion 4) | 450 | 34.8 | – | – | – | – |
| UGUCUGUCAGGAUAUCCAGAAGAGAAGAAAGUAAGAUGAGUGGAGAAGGGACAUGAGGAUCACCCAUGUAAUUA [My frist] (puzzle: Exclusion 4) | – | – | 29.7 | – | – | – |
| AGUAAGCUAGGAUAUGCUUUGGGAAAGCAAUCCUUCGAUAAACUUGAGGAUCACCCAAGUAGAAGGAGCUUACU [jl-ex2.4.50 ViennaUCT mod] (Eterna round: R97, puzzle: Exclusion 2) | 99.8 | 25.4 | – | – | – | – |
| UCACGGGAUUGAGGAUAUAUUUAAAUUUUUACAAUAGAAGGCAAAUUUUUAGUUUUUUCACUUUACAUGAGGAUCACCCAUGUU [JR_ExcBG1_Sub082] (Eterna round: R96, puzzle: Exclusion NG 1) | – | – | – | – | – | 19.6 |
| AGUACUAUGCGUGCUGACAUGCGUAGUGCAGCAGGUGUAACAUGAGGAUCACCCAUGUCCUCAUUUGCUCGUCUUAU [Mat - Sensor v3 - Turn-off var 2 - D12] (puzzle: Sensor v3, turn-off variant 2) | – | – | 201 | 116 | 127 | – |
| UAUGUGUCAGGAUAUUAGUAGUAAAUGAAUAAAAUUAUUACUGAGAAGGGACAUGAGGAUCACCCAUGUGCCUC [Mat - Exclusion 4 - Eli Mod - D27] (Eterna round: R97, puzzle: Exclusion 4) | 345 | 35.2 | – | – | – | – |
| ACCUCACAUGAGGAUCACCCAUGUCAGGAUAUGUACCCGAUCAAGUCAGAGAUUGGGAGCAGAAGGGACUGCGG [Leesla] (puzzle: Exclusion 1) | – | – | 104 | – | – | – |
| AGCUUUUUGUUCGUCUUACACAUGAGGAUCACCCAUGUGUCGGACCGCAUCGAUAGAUGUAGACCGAGAAGCAUGGG [Omdei Mir OFFv1 C9] (Eterna round: R97, puzzle: Sensor, turn-off variant 1) | 95.6 | 98.9 | – | – | – | – |
| UAUAUAUAGUAAGGAUAUGUAUAUAUUUUAGAAACAGAAGGUACUGACAUGAGGAUCACCCAUGUUUUAGUGUGGGCAUGUAGA [JMF's solution 67] (Eterna round: R96, puzzle: Exclusion NG 1) | – | – | – | – | – | 52.7 |
| ACGUGAUAUCUGUCGUUGGACAUGAGGAUCACCCAUGUGAGCUUUUUGCUCGUCUUAUAACCCGGUGACAGACCUUC [Aatbebeed] (puzzle: Sensor v3, turn-off variant 1) | – | – | 247 | 18.4 | 16.6 | – |
| AUAAAUCAUGUAGGAUAUGCGUGGCGAAGCUAUGCAGAAGGACAUGAGGAUCACCCAUGUGCUUGCGUCUGCGUACAGAUGCUA [Mat - Exclusion NG 1 - Mod of JL - D5] (Eterna round: R96, puzzle: Exclusion NG 1) | 330 | 51.7 | – | – | – | 37.7 |
| GCAGCUGCUCUAGGAUAUAUUUUAGCACAUGAGGAUCACCCAUGUGGGACCACAACAGCGCAAGAAUAGAAGGAGACAGCAGUA [Eternabot solution 32] (Eterna round: R96, puzzle: Exclusion NG 2) | 506 | 129 | – | – | – | 125 |
| AGUACUAACACGAAAGUGUUAGUACAAUAAGCUUGUGAUACAUGAGGAUCACCCAUGUCCUCAUAAGCUCGUCUUAU [salish99_TOv2_r3_045] (Eterna round: R96, puzzle: Sensor v3, turn-off variant 2) | 23.7 | 24.2 | – | – | – | 714 |
| UCUUCACAUGAGGAUCACCCAUGUGAGGAUAUGGUUUCGCUGGCCGUAGCCAGUGGAACCAGAAGGCGCAUGAU [Mat - Exclusion 1 - JL Mod - D7] (Eterna round: R97, puzzle: Exclusion 1) | 21.5 | 26.1 | – | – | – | – |
| GGUCAGAUGGUAGGAUAUCCAUAUCGAGUGACCCUUUCAUAACAUGAGGAUCACCCAUGUCGGUGGGAGAAGGGCCGUAUGGCG [salish99_ExNG02_R04_022] (Eterna round: R96, puzzle: Exclusion NG 2) | 69.8 | 51.3 | – | – | – | 34.9 |
| UUUUAACAUGAGGAUCACCCAUGUGAGGAUAUCGAAAUUUAUAUUUAUAUUUAUAUUACGAGAAGGCACAUUUU [JMF 98] (puzzle: Exclusion 1) | – | – | 84.3 | – | – | – |
| AGUAACCGUCACGAAAGUGAUGGUUACGCAAGCAAUUGUACAUGAGGAUCACCCAUGUCCUCAUUUGCUCGUCUUAU [Sensor 3 - 42] (puzzle: Sensor v3, turn-off variant 2) | – | – | 378 | 313 | 357 | – |
